This is an account of results in US20200040057A1 (IMMATICS BIOTECHNOLOGIES, published 2020).

This assay concerns the target HLA-B*07 (human). The experiment in a line: UV peptide exchange ELISA; ++++ = yield >75%. On the technique in general: An ELISA detects its analyte on a solid surface through an enzyme-linked reagent.
For the molecule APAKDARASL, the peptide exchange yield is more than 75%. The molecule APSRLLEL gave a peptide exchange yield of more than 75%. On to VPIPTHYFVVL, for which the peptide exchange yield is more than 75%. Take SPASRSISLL: the peptide exchange yield is more than 75%. In the case of KPRTPFTTAQL it was more than 75%; in that of MPYNSAHHCVV, more than 75%; in that of RPYGCVLRAA, more than 75%. IPMPRITWL returned a peptide exchange yield of more than 75%. In turn, FPVQATIDF registered a peptide exchange yield of more than 75%.

As to SPRRLVELAGQSL, the peptide exchange yield is more than 75%.

As for RPDVVRTLL, the peptide exchange yield is more than 75%.

With VPRPTSTVGLFL, the peptide exchange yield was more than 75%. Molecule IPTSRVITL showed a peptide exchange yield of more than 75%. SPTLRQLDL gave a peptide exchange yield of more than 75%.

LPQLKPAL came in with a peptide exchange yield of more than 75%. The molecule APVVFPAL came in with a peptide exchange yield of more than 75%. Take SPFSGGPVSF: the peptide exchange yield is more than 75%. Regarding RPPLSQRHTF, the peptide exchange yield is more than 75%. With LPAPLRISL, the peptide exchange yield is more than 75%. Consider SPRQPRLDF, for which the peptide exchange yield was more than 75%. In the case of QPRDGWPMML, the peptide exchange yield is more than 75%.

In turn, SPDPAHLESL showed a peptide exchange yield of more than 75%. Regarding SPYGSDRLVQL, the peptide exchange yield is more than 75%. The result for SPYAGSTAF reads more than 75%. For SPSFSSTLLSL, the peptide exchange yield was more than 75%. The result for APRLALDPDAL reads more than 75%. The result for VPILPLNHAL reads more than 75%; that for GPRQVLFPL, more than 75%; that for RPLDTFRVL, more than 75%. The molecule TPISNTGVL had a peptide exchange yield of more than 75%. Turning to SPAPWRPWI, the peptide exchange yield is more than 75%.

As to LPRGVLEGL, the peptide exchange yield is more than 75%. Molecule RPGPQRTTSV returned a peptide exchange yield of more than 75%.

As to MVLGIGPVL, the peptide exchange yield was more than 75%. YPLSLALHF gave a peptide exchange yield of more than 75%. VPLSSYVSI had a peptide exchange yield of more than 75%.

In turn, RPFSAIAEL came in with a peptide exchange yield of more than 75%. Turning to QPVKKNTL, the peptide exchange yield was more than 75%. The molecule TPHGITDIL registered a peptide exchange yield of more than 75%. On to RPKHFLQML, for which the peptide exchange yield is more than 75%.

For the molecule APALPGQVTI, the peptide exchange yield was more than 75%. Consider LPAFSKIGGIL, for which the peptide exchange yield was more than 75%. Molecule RPKTSVNLISSL had a peptide exchange yield of more than 75%. APLMPLGKTL gave a peptide exchange yield of more than 75%. As for MPLLADVRL, the peptide exchange yield was more than 75%. On to APKTSFIAA, for which the peptide exchange yield is more than 75%. In the case of HPRWIEPTVM it was more than 75%; in that of APMHIDRNIL, more than 75%.

For VPYPSPTCV, the peptide exchange yield was more than 75%.

Regarding SPYPGSAAF, the peptide exchange yield is more than 75%. On to KPRTPFTTA, for which the peptide exchange yield was more than 75%.

In turn, RPPPPCIAL registered a peptide exchange yield of more than 75%.

In the case of SPLLMQRTL, the peptide exchange yield was more than 75%.

LPRSPPLKVL came in with a peptide exchange yield of more than 75%. SPSSASLTL showed a peptide exchange yield of more than 75%.

Take FPYDKPLIM: the peptide exchange yield was more than 75%.

MPHLGPGILL gave a peptide exchange yield of more than 75%. In the case of SPGWAQTQL it was more than 75%; in that of NPASRLTAL, more than 75%; in that of APQVHIFSL, more than 75%.

As for RPKSTLMNF, the peptide exchange yield was more than 75%. Turning to SPLEKINSF, the peptide exchange yield is more than 75%. The result for LPAPTSLVL reads more than 75%; that for FPQVGRTAL, more than 75%. Molecule KPRNMTGLDL showed a peptide exchange yield of more than 75%. With SPRSNPVRL, the peptide exchange yield was more than 75%. The result for GPRTTQSSVL reads more than 75%; that for VPKPAIPSSSVL, more than 75%.
